Where no end group is shown, it is not given here. [ ]: non-standard residue; d: D form. pY = N[C@@H](Cc1ccc(OP(=O)(O)O)cc1)C(=O)O
Assays:
[1] = biological target: T1, recombinant human STAT3 SH2 domain (Homo sapiens, UniProt P40763); experiment: AlphaScreen SH2 binding assay, STAT3
T1 construct: Full-length cDNAs were obtained from a human cDNA library by PCR; Avi-tag (biotinylated in BirA-BL21) (N); made in house; host or cells: Escherichia coli BirA-BL21
Procedure: AlphaScreen assays were performed in a final reaction volume of 25 μL of the assay buffer, containing 10 mM HEPES-NaOH (pH 7.4), 50 mM NaCl, 1 mM EDTA (pH 8.0), 0.1% NP-40, and 10 ng/mL BSA in a 96-well microtiter plate at 25°C. The labeled Phospho-Tyr (pTyr) peptide probe was 5-carboxyfluorescein (FITC)-GpYLPQTV for STAT3, FITC-GpYDKPHVL for STAT1, and FITC-PSpYVNVQN for Grb2. A DMSO solution of BENDA was incubated with 50 nM of each SH2-containing protein for 15 min, 50 nM of the corresponding FITC-pTyr peptide was added, and the mixture was incubated for 90 min. Streptavidin-coated donor beads and anti-FITC acceptor beads were added and incubated for 90 min before the signals were measured with an Envision Xcite plate reader (PerkinElmer Life Sciences, Waltham, MA, USA).

[2] = biological target: T2, cellular STAT3 in MDA-MB-468 cells (Homo sapiens, UniProt P40763); experiment: Pull-down assay using Bio-BENDA, anti-STAT3 immunoprecipitation; assay type: cell-based; conditions: 50 μM Bio-BENDA, 4 h
T2 construct: endogenous in cells; host or cells: MDA-MB-468
T2 sequence (P40763 2-770 limits assumed): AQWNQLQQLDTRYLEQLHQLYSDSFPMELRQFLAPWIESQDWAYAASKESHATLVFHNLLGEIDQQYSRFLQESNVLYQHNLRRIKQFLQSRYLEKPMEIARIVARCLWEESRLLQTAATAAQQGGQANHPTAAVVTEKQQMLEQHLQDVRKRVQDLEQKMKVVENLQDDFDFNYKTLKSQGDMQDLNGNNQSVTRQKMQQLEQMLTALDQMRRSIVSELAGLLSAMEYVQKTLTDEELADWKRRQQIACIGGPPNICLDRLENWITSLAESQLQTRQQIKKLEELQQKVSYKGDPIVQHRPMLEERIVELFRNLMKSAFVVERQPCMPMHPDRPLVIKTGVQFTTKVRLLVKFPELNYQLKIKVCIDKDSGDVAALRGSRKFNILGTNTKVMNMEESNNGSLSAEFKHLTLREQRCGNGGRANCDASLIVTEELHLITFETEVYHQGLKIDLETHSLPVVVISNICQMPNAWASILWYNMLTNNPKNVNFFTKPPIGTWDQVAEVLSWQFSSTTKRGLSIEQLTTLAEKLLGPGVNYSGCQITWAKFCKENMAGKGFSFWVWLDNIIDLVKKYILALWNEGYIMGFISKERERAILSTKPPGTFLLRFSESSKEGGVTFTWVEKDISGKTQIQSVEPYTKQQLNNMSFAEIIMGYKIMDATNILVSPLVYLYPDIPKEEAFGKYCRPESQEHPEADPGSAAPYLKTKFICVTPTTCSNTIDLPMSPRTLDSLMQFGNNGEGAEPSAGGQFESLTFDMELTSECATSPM
Procedure: MDA-MB-468 cells were treated with biotinylated BENDA (Bio-BENDA) in the presence or absence of an excess amount of free drugs for 4 h and then lysed in PhosphoSafe™ Extraction Reagent (Merck, Darmstadt, Germany). Lysate (200 μL) was precleared with a mixture of Protein G Plus/Protein A Agarose Suspension (EMD Millipore, Billerica, MA, USA) for 1 h at 4°C and protein A and G agarose were removed by centrifugation at 13,000 rpm for 10 min. The lysate (200 μL) was immunoprecipitated with STAT3 antibody (1 μL) overnight at 4°C on a shaker and the immunocomplex was captured by the addition of a Protein G Plus/Protein A Agarose Suspension (30 μL) slurry for 1 h at 4°C. Samples were washed five times with lysis buffer and then boiled four times in SDS-PAGE sample buffer and run on an SDS-PAGE gel. The protein was transferred to a nitrocellulose membrane. The membranes were blocked in 5% skim milk in TBS/0.1% Tween 20. They were then incubated with streptavidin-HRP diluted at 1:2000 in 1.5% skim milk in TBS (pH7.4)/0.1% Tween 20 overnight at 4°C. Immunoblots were developed by using a chemiluminescent substrate.

[3] = biological target: T3, cellular STAT1 in MDA-MB-468 cells (Homo sapiens, UniProt P42224); experiment: Pull-down assay using Bio-BENDA, anti-STAT1 immunoprecipitation; assay type: cell-based; conditions: 50 μM Bio-BENDA, 4 h
T3 construct: endogenous in cells; host or cells: MDA-MB-468
T3 sequence (P42224 whole entry): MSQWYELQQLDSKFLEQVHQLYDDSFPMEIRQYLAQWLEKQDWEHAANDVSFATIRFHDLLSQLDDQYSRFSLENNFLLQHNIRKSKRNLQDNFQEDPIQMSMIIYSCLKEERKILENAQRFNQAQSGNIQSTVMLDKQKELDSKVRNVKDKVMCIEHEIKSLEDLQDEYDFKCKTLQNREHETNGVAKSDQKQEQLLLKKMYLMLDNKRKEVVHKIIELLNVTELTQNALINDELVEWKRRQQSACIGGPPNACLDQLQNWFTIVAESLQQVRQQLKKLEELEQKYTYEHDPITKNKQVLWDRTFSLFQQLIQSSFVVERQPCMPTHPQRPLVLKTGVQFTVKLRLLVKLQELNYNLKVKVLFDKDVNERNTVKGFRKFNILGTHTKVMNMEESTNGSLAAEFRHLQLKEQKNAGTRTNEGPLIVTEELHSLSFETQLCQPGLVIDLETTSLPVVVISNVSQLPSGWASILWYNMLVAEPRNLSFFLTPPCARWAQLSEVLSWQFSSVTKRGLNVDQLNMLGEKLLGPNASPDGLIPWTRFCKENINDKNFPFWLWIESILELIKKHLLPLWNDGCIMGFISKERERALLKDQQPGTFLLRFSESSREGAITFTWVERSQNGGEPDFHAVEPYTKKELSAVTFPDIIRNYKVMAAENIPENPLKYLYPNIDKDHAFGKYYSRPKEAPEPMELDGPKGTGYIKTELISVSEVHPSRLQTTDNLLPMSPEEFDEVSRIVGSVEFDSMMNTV

[4] = test system: MDA-MB-468 cells and MDA-MB-453 cells; set-up: method as in PMID 26010889; conditions: cited from earlier work
[5] = biological target: T4, recombinant human STAT3 (signal transducer and activator of transcription 3) (human, UniProt P40763 1-770, biotin (Avi-tag; expressed in BirA-BL21 cells induced with 50 μM biotin)); experiment: AlphaScreen or HTRF; 50 nM SH2-containing protein pre-incubated 15 min with BENDA in DMSO, then 50 nM FITC-pTyr peptide 90 min; streptavidin-coated donor beads and anti-FITC acceptor beads 90 min; 10 mM HEPES-NaOH pH 7.4, 50 mM NaCl, 1 mM EDTA, 0.1% NP-40, 10 ng/mL BSA, 25°C; conditions: both partners purified
T4 construct: human STAT3, full-length cDNA from a human cDNA library, cloned into modified pET-28a(+); also called rhSTAT3; wild-type rhSTAT3; source: E. coli BirA-BL21, purified (Ni Sepharose, dialysis); not shown: Avi-tag, N-terminal, kept
T4 sequence (P40763 whole entry): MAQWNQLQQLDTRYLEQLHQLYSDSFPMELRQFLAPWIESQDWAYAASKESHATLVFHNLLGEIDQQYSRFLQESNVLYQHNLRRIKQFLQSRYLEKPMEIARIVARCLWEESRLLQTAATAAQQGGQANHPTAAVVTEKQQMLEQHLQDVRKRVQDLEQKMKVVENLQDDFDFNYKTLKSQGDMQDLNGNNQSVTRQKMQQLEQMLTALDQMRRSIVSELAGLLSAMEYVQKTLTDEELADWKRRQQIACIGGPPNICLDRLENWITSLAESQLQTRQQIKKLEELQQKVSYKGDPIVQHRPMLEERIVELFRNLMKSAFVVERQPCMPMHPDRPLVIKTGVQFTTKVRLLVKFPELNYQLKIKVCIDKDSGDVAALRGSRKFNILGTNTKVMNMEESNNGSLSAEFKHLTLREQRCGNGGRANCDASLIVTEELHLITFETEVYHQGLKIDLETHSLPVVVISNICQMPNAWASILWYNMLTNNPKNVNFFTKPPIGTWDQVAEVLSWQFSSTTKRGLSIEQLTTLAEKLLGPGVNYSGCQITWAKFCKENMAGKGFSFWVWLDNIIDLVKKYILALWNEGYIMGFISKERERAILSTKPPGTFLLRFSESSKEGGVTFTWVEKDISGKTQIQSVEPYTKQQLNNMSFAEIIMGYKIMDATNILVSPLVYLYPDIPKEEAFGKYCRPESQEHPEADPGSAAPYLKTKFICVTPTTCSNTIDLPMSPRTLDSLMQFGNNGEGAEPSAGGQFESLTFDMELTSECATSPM

[6] = biological target: T5, mutant recombinant human STAT3, Cys687 to alanine (human, UniProt P40763 1-770, Cys687 to alanine, biotin (Avi-tag; expressed in BirA-BL21 cells induced with 50 μM biotin)); experiment: AlphaScreen or HTRF; 375 nM mutant recombinant STAT3 incubated with 100 μM BENDA in DMSO for 30 min, then the AlphaScreen SH2 binding assay with the phosphotyrosine peptide; conditions: both partners purified
T5 construct: human STAT3, full-length cDNA, single point mutation by inverse PCR, in modified pET-28a(+); Expression and purification are described for the wild type; also called Cys687 mutant; mutant STAT3 His-Avi-pET28a (+); source: E. coli BirA-BL21, purified (Ni Sepharose, dialysis); not shown: Avi-tag, N-terminal, kept
T5 sequence (P40763 other isoform, or with tags, fused parts or gaps Cys687 to alanine | Cys687 to alanine | mutant): as the sequence (P40763 whole entry) above, with C687A counted along it

[7] = biological target: T6, mutant recombinant human STAT3, Cys468 to alanine (human, UniProt P40763 1-770, Cys468 to alanine, biotin (Avi-tag; expressed in BirA-BL21 cells induced with 50 μM biotin)); experiment: as above; conditions: both partners purified
T6 construct: human STAT3, full-length cDNA, single point mutation by inverse PCR, in modified pET-28a(+); Expression and purification are described for the wild type; also called Cys468 mutant; mutant STAT3 His-Avi-pET28a (+); source: E. coli BirA-BL21, purified (Ni Sepharose, dialysis); not shown: Avi-tag, N-terminal, kept
T6 sequence (P40763 other isoform, or with tags, fused parts or gaps Cys468 to alanine | Cys468 to alanine | mutant): as the sequence (P40763 whole entry) above, with C468A counted along it

[8] = biological target: T7, mutant recombinant human STAT3, Cys542 to alanine (human, UniProt P40763 1-770, Cys542 to alanine, biotin (Avi-tag; expressed in BirA-BL21 cells induced with 50 μM biotin)); experiment: as above; conditions: both partners purified
T7 construct: human STAT3, full-length cDNA, single point mutation by inverse PCR, in modified pET-28a(+); Expression and purification are described for the wild type; also called Cys542 mutant; mutant STAT3 His-Avi-pET28a (+); source: E. coli BirA-BL21, purified (Ni Sepharose, dialysis); not shown: Avi-tag, N-terminal, kept
T7 sequence (P40763 other isoform, or with tags, fused parts or gaps Cys542 to alanine | Cys542 to alanine | mutant): as the sequence (P40763 whole entry) above, with C542A counted along it

[9] = biological target: T8, mutant recombinant human STAT3, C712A (human, UniProt P40763 1-770, C712A, biotin (Avi-tag; expressed in BirA-BL21 cells induced with 50 μM biotin)); experiment: as above; conditions: both partners purified
T8 construct: human STAT3, full-length cDNA, single point mutation by inverse PCR, in modified pET-28a(+); Expression and purification are described for the wild type; also called Cys712 mutant; mutant STAT3 His-Avi-pET28a (+); source: E. coli BirA-BL21, purified (Ni Sepharose, dialysis); not shown: Avi-tag, N-terminal, kept
T8 sequence (P40763 whole entry C712A): as the sequence (P40763 whole entry) above, with C712A counted along it

[10] = biological target: T9, mutant recombinant human STAT3, C550A (human, UniProt P40763 1-770, C550A, biotin (Avi-tag; expressed in BirA-BL21 cells induced with 50 μM biotin)); experiment: as above; conditions: both partners purified
T9 construct: human STAT3, full-length cDNA, single point mutation by inverse PCR, in modified pET-28a(+); Expression and purification are described for the wild type; also called Cys550 mutant; mutant STAT3 His-Avi-pET28a (+); source: E. coli BirA-BL21, purified (Ni Sepharose, dialysis); not shown: Avi-tag, N-terminal, kept
T9 sequence (P40763 whole entry C550A): as the sequence (P40763 whole entry) above, with C550A counted along it

T1 sequence (P40763 whole entry, the tested form may be a part): as the sequence (P40763 whole entry) above

CCOC(=O)CCCc1nc2cc(N(CCCl)CCCl)ccc2n1C [BM1EE, BENDA ethyl ester]
IC50 [1]: 6.1 µM

Cn1c(CCCC(=O)OCCOCCOCCOCCNC(=O)CCC[C@@H]2SC[C@@H]3NC(=O)N[C@@H]32)nc2cc(N(CCCl)CCCl)ccc21 [Bio-BENDA, 13-Oxo-16-[(3aS,4S,6aR)-2-oxohexahydro-1H-thieno[3,4-d]imidazol-4-yl]-3,6,9-trioxa-12-azahexadecyl 4-{5-[bis(2-chloroethyl)amino]-1-methyl-1H-benzo[d]imidazol-2-yl}butanoate]
Binding to cellular STAT3 (band by streptavidin-HRP after anti-STAT3 IP) [2]: the STAT3 band was observed | Binding to cellular STAT1 (band by streptavidin-HRP after anti-STAT1 IP) [3]: no band

C=C1C(=O)[C@]23C[C@H]1CC[C@H]2[C@@]12CO[C@]3(O)[C@@H](O)[C@@H]1C(C)(C)C=CC2=O [Eriocalyxin B]
Growth inhibition of MDA-MB-468 versus MDA-MB-453 cells [4]: inhibit the growth of MDA-MB-468 cells more than that of the MDA-MB-453 cells

O=[N+]([O-])c1ccc2c(c1)S(=O)(=O)C=C2 [Stattic]
Growth inhibition of MDA-MB-468 versus MDA-MB-453 cells [4]: inhibit the growth of MDA-MB-468 cells more than that of the MDA-MB-453 cells

B1: 5-carboxyfluorescein (FITC)-GpYLPQTV, labeled Phospho-Tyr peptide probe for STAT3 (peptide)
peptide: G[pY]LPQTV
modifications: not fully specified (N-terminus)
notes: the leading G is not the natural residue there; also called phosphotyrosine peptide; pTyr peptide; source: synthetic peptide (NippiBiomatrix Laboratory)
binding result [5]: binds | binding result [6]: binds | binding result [7]: binds | binding result [8]: binds | binding result [9]: binds | binding result [10]: binds
